Source: patent US20220204580A1 (AstraZeneca / MedImmune, published 2022)
Numbered stars: 1 amine (or outer) side, 2 acyl side, 3 side chain; on linkers, the order of the positions; unused ones are H or OH. Bridge positions count the residues as written; N and C are the ends. Square brackets hold non-standard residues; d marks the D form. Side chains are listed from the residue outwards. Ends that are not written are not given here. * marks the point of attachment. C18 diacid = O=C(O)CCCCCCCCCCCCCCCCC(=O)*; γGlu = O=C(O)[C@H](CCC(=O)[*:2])N[*:1]; Dab = NCC[C@H](N)C(=O)O; Aib = CC(C)(N)C(=O)O

T1: human amylin receptor (calcitonin receptor co-expressed with receptor activity modifying protein, RAMP3) (human, UniProt P30988 25-474; O60896 24-148)
T1 sequence (looked up) 1: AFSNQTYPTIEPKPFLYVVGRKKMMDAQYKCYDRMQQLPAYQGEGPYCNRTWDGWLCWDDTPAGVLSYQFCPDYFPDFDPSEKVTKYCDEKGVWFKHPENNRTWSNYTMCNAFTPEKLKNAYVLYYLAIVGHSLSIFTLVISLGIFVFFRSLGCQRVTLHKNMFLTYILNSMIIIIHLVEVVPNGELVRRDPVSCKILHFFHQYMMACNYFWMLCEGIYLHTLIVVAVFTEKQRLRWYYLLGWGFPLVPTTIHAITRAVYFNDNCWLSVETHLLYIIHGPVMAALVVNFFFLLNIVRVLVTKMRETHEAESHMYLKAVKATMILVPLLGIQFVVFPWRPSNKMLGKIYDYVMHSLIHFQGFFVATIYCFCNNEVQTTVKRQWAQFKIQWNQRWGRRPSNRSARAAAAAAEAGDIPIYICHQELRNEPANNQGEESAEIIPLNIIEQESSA
T1 sequence (looked up) 2: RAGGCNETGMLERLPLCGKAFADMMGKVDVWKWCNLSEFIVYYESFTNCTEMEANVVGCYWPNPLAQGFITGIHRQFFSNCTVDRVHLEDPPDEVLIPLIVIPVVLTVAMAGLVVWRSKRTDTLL

T2: human calcitonin receptor (human, UniProt P30988 25-474)
T2 sequence (looked up): T1 sequence (looked up) 1

T3: rat amylin receptor (calcitonin receptor co-expressed with receptor activity modifying protein, RAMP3) (rat, UniProt P32214 25-516; Q9JJ73 23-147)
T3 sequence (looked up) 1: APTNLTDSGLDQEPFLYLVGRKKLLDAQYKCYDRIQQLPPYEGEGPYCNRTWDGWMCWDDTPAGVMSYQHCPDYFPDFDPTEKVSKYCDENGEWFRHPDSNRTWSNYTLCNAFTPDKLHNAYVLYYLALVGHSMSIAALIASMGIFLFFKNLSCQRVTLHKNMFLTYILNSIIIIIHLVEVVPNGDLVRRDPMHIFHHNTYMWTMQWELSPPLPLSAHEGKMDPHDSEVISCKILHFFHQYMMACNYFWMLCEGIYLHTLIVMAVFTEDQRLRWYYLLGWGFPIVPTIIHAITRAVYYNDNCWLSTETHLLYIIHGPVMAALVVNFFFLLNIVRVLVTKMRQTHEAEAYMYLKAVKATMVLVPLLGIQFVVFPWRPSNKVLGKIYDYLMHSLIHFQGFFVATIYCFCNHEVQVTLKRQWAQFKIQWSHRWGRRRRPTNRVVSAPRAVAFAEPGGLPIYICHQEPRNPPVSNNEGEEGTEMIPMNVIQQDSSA
T3 sequence (looked up) 2: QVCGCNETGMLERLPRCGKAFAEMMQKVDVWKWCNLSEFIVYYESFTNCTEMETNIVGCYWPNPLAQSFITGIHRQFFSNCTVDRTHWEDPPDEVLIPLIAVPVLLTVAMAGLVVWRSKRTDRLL

T4: rat calcitonin receptor (rat, UniProt P32214 25-516)
T4 sequence (looked up): T3 sequence (looked up) 1

B1: Peptide 48 (SEQ ID NO: 48) (peptide)
peptide: K([γGlu-C18 diacid])CNTATCATQRLANFLRHSS[Aib]NFGPILPPTNVGSNTY-NH2
modifications: disulfide 2-7; N-terminus assumed
SMILES: CC[C@H](C)[C@H](NC(=O)[C@@H]1CCCN1C(=O)CNC(=O)[C@H](Cc1ccccc1)NC(=O)[C@H](CC(N)=O)NC(=O)C(C)(C)NC(=O)[C@H](CO)NC(=O)[C@H](CO)NC(=O)[C@H](Cc1c[nH]cn1)NC(=O)[C@H](CCCNC(=N)N)NC(=O)[C@H](CC(C)C)NC(=O)[C@H](Cc1ccccc1)NC(=O)[C@H](CC(N)=O)NC(=O)[C@H](C)NC(=O)[C@H](CC(C)C)NC(=O)[C@H](CCCNC(=N)N)NC(=O)[C@H](CCC(N)=O)NC(=O)[C@@H](NC(=O)[C@H](C)NC(=O)[C@@H]1CSSC[C@H](NC(=O)[C@@H](N)CCCCNC(=O)CC[C@H](NC(=O)CCCCCCCCCCCCCCCCC(=O)O)C(=O)O)C(=O)N[C@@H](CC(N)=O)C(=O)N[C@@H]([C@@H](C)O)C(=O)N[C@@H](C)C(=O)N[C@@H]([C@@H](C)O)C(=O)N1)[C@@H](C)O)C(=O)N[C@@H](CC(C)C)C(=O)N1CCC[C@H]1C(=O)N1CCC[C@H]1C(=O)N[C@H](C(=O)N[C@@H](CC(N)=O)C(=O)N[C@H](C(=O)NCC(=O)N[C@@H](CO)C(=O)N[C@@H](CC(N)=O)C(=O)N[C@H](C(=O)N[C@@H](Cc1ccc(O)cc1)C(N)=O)[C@@H](C)O)C(C)C)[C@@H](C)O
B2: Peptide 43 (SEQ ID NO: 43) (peptide)
peptide: K([γGlu-C18 diacid])KCNTATCATQRLANFLRHSS[Aib]NFGPILPPTEVGSNTY-NH2
modifications: disulfide 3-8; N-terminus assumed
SMILES: CC[C@H](C)[C@H](NC(=O)[C@@H]1CCCN1C(=O)CNC(=O)[C@H](Cc1ccccc1)NC(=O)[C@H](CC(N)=O)NC(=O)C(C)(C)NC(=O)[C@H](CO)NC(=O)[C@H](CO)NC(=O)[C@H](Cc1c[nH]cn1)NC(=O)[C@H](CCCNC(=N)N)NC(=O)[C@H](CC(C)C)NC(=O)[C@H](Cc1ccccc1)NC(=O)[C@H](CC(N)=O)NC(=O)[C@H](C)NC(=O)[C@H](CC(C)C)NC(=O)[C@H](CCCNC(=N)N)NC(=O)[C@H](CCC(N)=O)NC(=O)[C@@H](NC(=O)[C@H](C)NC(=O)[C@@H]1CSSC[C@H](NC(=O)[C@H](CCCCN)NC(=O)[C@@H](N)CCCCNC(=O)CC[C@H](NC(=O)CCCCCCCCCCCCCCCCC(=O)O)C(=O)O)C(=O)N[C@@H](CC(N)=O)C(=O)N[C@@H]([C@@H](C)O)C(=O)N[C@@H](C)C(=O)N[C@@H]([C@@H](C)O)C(=O)N1)[C@@H](C)O)C(=O)N[C@@H](CC(C)C)C(=O)N1CCC[C@H]1C(=O)N1CCC[C@H]1C(=O)N[C@H](C(=O)N[C@@H](CCC(=O)O)C(=O)N[C@H](C(=O)NCC(=O)N[C@@H](CO)C(=O)N[C@@H](CC(N)=O)C(=O)N[C@H](C(=O)N[C@@H](Cc1ccc(O)cc1)C(N)=O)[C@@H](C)O)C(C)C)[C@@H](C)O
B3: Peptide 9 (SEQ ID NO: 9) (peptide)
peptide: K([γGlu-γGlu-C18 diacid])CNTATCATQRLANFLVHSS[Aib]NFPAILSPTNVGSNTY-NH2
modifications: disulfide 2-7; N-terminus assumed
SMILES: CC[C@H](C)[C@H](NC(=O)[C@H](C)NC(=O)[C@@H]1CCCN1C(=O)[C@H](Cc1ccccc1)NC(=O)[C@H](CC(N)=O)NC(=O)C(C)(C)NC(=O)[C@H](CO)NC(=O)[C@H](CO)NC(=O)[C@H](Cc1c[nH]cn1)NC(=O)[C@@H](NC(=O)[C@H](CC(C)C)NC(=O)[C@H](Cc1ccccc1)NC(=O)[C@H](CC(N)=O)NC(=O)[C@H](C)NC(=O)[C@H](CC(C)C)NC(=O)[C@H](CCCNC(=N)N)NC(=O)[C@H](CCC(N)=O)NC(=O)[C@@H](NC(=O)[C@H](C)NC(=O)[C@@H]1CSSC[C@H](NC(=O)[C@@H](N)CCCCNC(=O)CC[C@H](NC(=O)CC[C@H](NC(=O)CCCCCCCCCCCCCCCCC(=O)O)C(=O)O)C(=O)O)C(=O)N[C@@H](CC(N)=O)C(=O)N[C@@H]([C@@H](C)O)C(=O)N[C@@H](C)C(=O)N[C@@H]([C@@H](C)O)C(=O)N1)[C@@H](C)O)C(C)C)C(=O)N[C@@H](CC(C)C)C(=O)N[C@@H](CO)C(=O)N1CCC[C@H]1C(=O)N[C@H](C(=O)N[C@@H](CC(N)=O)C(=O)N[C@H](C(=O)NCC(=O)N[C@@H](CO)C(=O)N[C@@H](CC(N)=O)C(=O)N[C@H](C(=O)N[C@@H](Cc1ccc(O)cc1)C(N)=O)[C@@H](C)O)C(C)C)[C@@H](C)O
B4: Peptide 44 (SEQ ID NO: 44) (peptide)
peptide: K([γGlu-C18 diacid])CNTATCATQRLANFLRHSS[Aib]NFGPILPPTEVGSNTY-NH2
modifications: disulfide 2-7; N-terminus assumed
SMILES: CC[C@H](C)[C@H](NC(=O)[C@@H]1CCCN1C(=O)CNC(=O)[C@H](Cc1ccccc1)NC(=O)[C@H](CC(N)=O)NC(=O)C(C)(C)NC(=O)[C@H](CO)NC(=O)[C@H](CO)NC(=O)[C@H](Cc1c[nH]cn1)NC(=O)[C@H](CCCNC(=N)N)NC(=O)[C@H](CC(C)C)NC(=O)[C@H](Cc1ccccc1)NC(=O)[C@H](CC(N)=O)NC(=O)[C@H](C)NC(=O)[C@H](CC(C)C)NC(=O)[C@H](CCCNC(=N)N)NC(=O)[C@H](CCC(N)=O)NC(=O)[C@@H](NC(=O)[C@H](C)NC(=O)[C@@H]1CSSC[C@H](NC(=O)[C@@H](N)CCCCNC(=O)CC[C@H](NC(=O)CCCCCCCCCCCCCCCCC(=O)O)C(=O)O)C(=O)N[C@@H](CC(N)=O)C(=O)N[C@@H]([C@@H](C)O)C(=O)N[C@@H](C)C(=O)N[C@@H]([C@@H](C)O)C(=O)N1)[C@@H](C)O)C(=O)N[C@@H](CC(C)C)C(=O)N1CCC[C@H]1C(=O)N1CCC[C@H]1C(=O)N[C@H](C(=O)N[C@@H](CCC(=O)O)C(=O)N[C@H](C(=O)NCC(=O)N[C@@H](CO)C(=O)N[C@@H](CC(N)=O)C(=O)N[C@H](C(=O)N[C@@H](Cc1ccc(O)cc1)C(N)=O)[C@@H](C)O)C(C)C)[C@@H](C)O
B5: Peptide 8 (SEQ ID NO: 8) (peptide)
peptide: K([γGlu-γGlu-C18 diacid])CNTATCATQRLANFLVHSS[Dab]NFPAILSPTNVGSNTY-NH2
modifications: disulfide 2-7; N-terminus assumed
SMILES: CC[C@H](C)[C@H](NC(=O)[C@H](C)NC(=O)[C@@H]1CCCN1C(=O)[C@H](Cc1ccccc1)NC(=O)[C@H](CC(N)=O)NC(=O)[C@H](CCN)NC(=O)[C@H](CO)NC(=O)[C@H](CO)NC(=O)[C@H](Cc1c[nH]cn1)NC(=O)[C@@H](NC(=O)[C@H](CC(C)C)NC(=O)[C@H](Cc1ccccc1)NC(=O)[C@H](CC(N)=O)NC(=O)[C@H](C)NC(=O)[C@H](CC(C)C)NC(=O)[C@H](CCCNC(=N)N)NC(=O)[C@H](CCC(N)=O)NC(=O)[C@@H](NC(=O)[C@H](C)NC(=O)[C@@H]1CSSC[C@H](NC(=O)[C@@H](N)CCCCNC(=O)CC[C@H](NC(=O)CC[C@H](NC(=O)CCCCCCCCCCCCCCCCC(=O)O)C(=O)O)C(=O)O)C(=O)N[C@@H](CC(N)=O)C(=O)N[C@@H]([C@@H](C)O)C(=O)N[C@@H](C)C(=O)N[C@@H]([C@@H](C)O)C(=O)N1)[C@@H](C)O)C(C)C)C(=O)N[C@@H](CC(C)C)C(=O)N[C@@H](CO)C(=O)N1CCC[C@H]1C(=O)N[C@H](C(=O)N[C@@H](CC(N)=O)C(=O)N[C@H](C(=O)NCC(=O)N[C@@H](CO)C(=O)N[C@@H](CC(N)=O)C(=O)N[C@H](C(=O)N[C@@H](Cc1ccc(O)cc1)C(N)=O)[C@@H](C)O)C(C)C)[C@@H](C)O

Target: T1, human amylin receptor (calcitonin …)
Assay: cell-based or functional assay

Compared with B1, B2 is 5.1-fold higher in “EC50 (cAMP production)” value: 0.126 nM for the first, 0.647 nM for the second.

B3 and B4 are within 1.5-fold of each other in “EC50 (cAMP production)” value: 0.32 nM for the first, 0.284 nM for the second.

B5 was tested, and the “EC50 (cAMP production)” value was 0.375 nM.

Compared with B1, B2 is lower in “Ratio (EC50 hCTR / EC50 hAMYR3)” value: 42 for the first, 29 for the second.

Going from B3 to B4, the “Ratio (EC50 hCTR / EC50 hAMYR3)” value falls from 42 to 22.

With B5 the “Ratio (EC50 hCTR / EC50 hAMYR3)” value was 54.

Target: T2, human calcitonin receptor
Assay: cell-based or functional assay

Going from B1 to B2, the “EC50 (cAMP production)” value rises from 5.27 nM to 19 nM (3.6-fold).

Going from B3 to B4, the “EC50 (cAMP production)” value falls from 13.5 nM to 6.26 nM (2.2-fold).

B5 was tested, and the “EC50 (cAMP production)” value was 20.2 nM.

Target: T3, rat amylin receptor (calcitonin …)
Assay: cell-based or functional assay

Going from B1 to B2, the “EC50 (cAMP production)” value rises from 0.0048 nM to 0.0145 nM (3-fold).

B3 and B4 are within 1.5-fold of each other in “EC50 (cAMP production)” value: 0.0178 nM for the first, 0.0185 nM for the second.

In the case of B5, the “EC50 (cAMP production)” value is reported as 0.0256 nM.

Target: T4, rat calcitonin receptor
Assay: cell-based or functional assay

Compared with B1, B2 is 1.5-fold higher in “EC50 (cAMP production)” value: 2.43 nM for the first, 3.65 nM for the second.

First: B3
Second: B4
The “EC50 (cAMP production)” value of the first is 4.3-fold higher: 9.72 nM for the first, 2.24 nM for the second.

For B5, the “EC50 (cAMP production)” value was 19.9 nM.
